Patent publication US20210238296A1 (Genmab, published 2021)
Substitutions are numbered along the chain they refer to. Names and notes keep the numbering of the source. Values belong to the binder of their own block, whether it stands above or below them.

How the values were obtained:
[1] = target: T1, diFCGR2AH-HisBAP (dimeric extracellular domain of FcγRIIA allotype 131H) (Homo sapiens (Human), UniProt P12318 34-215, C-terminally biotinylated); test: ELISA, captured antibody 20 ug/mL, dimeric biotinylated FcγR ECD
T1 construct: dimeric, His-tagged, C-terminally biotinylated ECD; also called IIA-131H
T1 sequence: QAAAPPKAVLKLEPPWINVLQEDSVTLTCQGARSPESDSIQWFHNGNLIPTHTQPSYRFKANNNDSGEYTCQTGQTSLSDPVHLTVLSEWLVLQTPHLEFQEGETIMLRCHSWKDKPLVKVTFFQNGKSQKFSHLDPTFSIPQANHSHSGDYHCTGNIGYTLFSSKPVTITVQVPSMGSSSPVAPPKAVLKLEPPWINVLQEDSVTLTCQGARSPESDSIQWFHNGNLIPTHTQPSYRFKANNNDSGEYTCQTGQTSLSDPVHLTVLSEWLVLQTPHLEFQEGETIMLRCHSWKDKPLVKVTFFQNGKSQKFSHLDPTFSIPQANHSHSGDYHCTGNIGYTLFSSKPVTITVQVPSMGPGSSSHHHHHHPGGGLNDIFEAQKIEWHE

[2] = target: T2, diFCGR2AR-HisBAP (dimeric extracellular domain of FcγRIIA allotype 131R) (Homo sapiens (Human), UniProt P12318 36-215, C-terminally biotinylated); test: as above
T2 construct: dimeric, His-tagged, C-terminally biotinylated ECD; also called IIA-131R
T2 chain: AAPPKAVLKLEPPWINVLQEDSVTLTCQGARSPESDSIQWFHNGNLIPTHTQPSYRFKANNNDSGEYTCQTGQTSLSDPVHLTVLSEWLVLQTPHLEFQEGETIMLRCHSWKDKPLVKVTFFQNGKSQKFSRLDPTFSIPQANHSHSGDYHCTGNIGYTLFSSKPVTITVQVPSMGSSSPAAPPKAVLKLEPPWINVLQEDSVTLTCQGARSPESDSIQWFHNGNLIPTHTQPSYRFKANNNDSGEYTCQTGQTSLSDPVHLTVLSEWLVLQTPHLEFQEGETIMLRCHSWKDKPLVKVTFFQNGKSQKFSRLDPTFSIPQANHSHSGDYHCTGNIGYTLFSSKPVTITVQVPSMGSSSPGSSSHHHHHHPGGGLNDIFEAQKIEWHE

[3] = target: T3, diFCGR2B-HisBAP (dimeric extracellular domain of FcγRIIB) (Homo sapiens (Human), UniProt P31994 44-223, C-terminally biotinylated); test: as above
T3 construct: dimeric, His-tagged, C-terminally biotinylated ECD
T3 sequence: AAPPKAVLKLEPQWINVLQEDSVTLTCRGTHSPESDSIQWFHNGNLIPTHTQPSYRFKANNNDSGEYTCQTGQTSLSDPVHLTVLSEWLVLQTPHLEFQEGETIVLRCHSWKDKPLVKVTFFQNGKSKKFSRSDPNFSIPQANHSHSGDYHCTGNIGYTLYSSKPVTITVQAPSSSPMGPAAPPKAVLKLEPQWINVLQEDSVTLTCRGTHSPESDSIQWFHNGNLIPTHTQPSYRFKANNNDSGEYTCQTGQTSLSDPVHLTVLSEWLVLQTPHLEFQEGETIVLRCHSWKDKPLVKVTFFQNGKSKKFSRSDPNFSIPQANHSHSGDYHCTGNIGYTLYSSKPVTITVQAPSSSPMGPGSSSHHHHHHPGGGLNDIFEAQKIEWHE

[4] = target: T4, diFCGR3AF-HisBAP (dimeric extracellular domain of FcγRIIIA allotype 158F) (C-terminally biotinylated); test: as above
T4 construct: dimeric, His-tagged, C-terminally biotinylated ECD; also called IIIA-158F

[5] = target: T5, diFCGR3AV-HisBAP (dimeric extracellular domain of FcγRIIIA allotype 158V) (C-terminally biotinylated); test: as above
T5 construct: dimeric, His-tagged, C-terminally biotinylated ECD; also called IIIA-158V

C1q = target: T6, C1q (human, UniProt P02745 23-245; P02746 28-253; P02747 29-245); test: flow cytometry of C1q on antibody-opsonized Wien 133 cells, 20% NHS on ice
T6 construct: native C1q in 20% normal human serum, detected with rabbit anti-human C1q-FITC on antibody-opsonized Wien 133 cells; also called human C1q from normal human serum
T6 sequence (P02745 23-245 limits assumed, chain 1 of 3): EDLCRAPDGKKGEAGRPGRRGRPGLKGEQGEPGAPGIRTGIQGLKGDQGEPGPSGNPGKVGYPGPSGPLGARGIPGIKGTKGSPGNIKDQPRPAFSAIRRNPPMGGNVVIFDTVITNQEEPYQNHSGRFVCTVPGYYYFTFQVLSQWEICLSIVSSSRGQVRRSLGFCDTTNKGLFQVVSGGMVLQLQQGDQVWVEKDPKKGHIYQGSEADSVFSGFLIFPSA
T6 sequence (P02746 28-253 limits assumed, chain 2 of 3): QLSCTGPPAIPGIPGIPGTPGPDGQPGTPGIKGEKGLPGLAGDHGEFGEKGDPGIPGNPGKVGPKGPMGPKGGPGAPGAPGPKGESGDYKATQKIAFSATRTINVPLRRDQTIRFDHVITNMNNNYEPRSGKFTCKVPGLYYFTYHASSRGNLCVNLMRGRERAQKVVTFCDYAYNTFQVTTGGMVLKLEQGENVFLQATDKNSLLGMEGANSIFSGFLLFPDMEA
T6 sequence (P02747 29-245 limits assumed, chain 3 of 3): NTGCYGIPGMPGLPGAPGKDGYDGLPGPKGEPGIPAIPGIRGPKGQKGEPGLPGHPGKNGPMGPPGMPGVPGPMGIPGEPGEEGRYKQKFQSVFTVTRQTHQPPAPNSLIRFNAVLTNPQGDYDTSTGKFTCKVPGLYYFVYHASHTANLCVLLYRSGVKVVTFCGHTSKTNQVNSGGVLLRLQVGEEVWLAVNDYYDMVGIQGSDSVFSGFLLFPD

[6] = target: FCGR1AECDHis (monomeric extracellular domain of FcγRIA) (Homo sapiens (Human), UniProt P12314 16-292); test: ELISA, coated FCGR1AECD-His, 20 ug/mL antibody
Sequence of FCGR1AECDHis (monomeric extracellular domain of FcγRIA) (P12314 other isoform, or with tags, fused parts or gaps limits assumed): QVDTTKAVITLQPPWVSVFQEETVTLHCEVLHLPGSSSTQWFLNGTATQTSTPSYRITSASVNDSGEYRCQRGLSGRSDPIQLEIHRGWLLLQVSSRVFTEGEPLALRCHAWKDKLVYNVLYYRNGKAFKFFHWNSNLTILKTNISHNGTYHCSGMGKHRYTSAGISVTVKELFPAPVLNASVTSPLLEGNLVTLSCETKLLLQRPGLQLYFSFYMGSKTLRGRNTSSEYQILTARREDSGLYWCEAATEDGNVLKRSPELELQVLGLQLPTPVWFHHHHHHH

[7] = target: T1, diFCGR2AH-HisBAP (dimeric extracellular …); test: ELISA, captured antibody, dimeric biotinylated FcγR ECD
[8] = target: T2, diFCGR2AR-HisBAP (dimeric extracellular …); test: as above
[9] = target: T3, diFCGR2B-HisBAP (dimeric extracellular …); test: as above
[10] = target: T4, diFCGR3AF-HisBAP (dimeric extracellular …); test: as above
[11] = target: T5, diFCGR3AV-HisBAP (dimeric extracellular …); test: as above
[12] = target: T1, diFCGR2AH-HisBAP (dimeric extracellular …); test: FcγR ELISA, 20 ug/mL antibody
[13] = target: T2, diFCGR2AR-HisBAP (dimeric extracellular …); test: FcγR ELISA, 20 ug/mL antibody
[14] = target: T3, diFCGR2B-HisBAP (dimeric extracellular …); test: FcγR ELISA, 20 ug/mL antibody

reduction of FcγR binding against IgG1-11B8-E430G-S440K [1]: ~50% | reduction of FcγR binding against IgG1-11B8-E430G-S440K [2]: ~50% | reduction of FcγR binding against IgG1-11B8-E430G-S440K [3]: ~50% | reduction of FcγR binding against IgG1-11B8-E430G-S440K [4]: ~20% | reduction of FcγR binding against IgG1-11B8-E430G-S440K [5]: ~20% | binding result (C1q): binds
B1: IgG1-11B8-E430G-S440K-E333S (antibody)
heavy: EVQLVQSGGGLVHPGGSLRLSCTGSGFTFSYHAMHWVRQAPGKGLEWVSIIGTGGVTYYADSVKGRFTISRDNVKNSLYLQMNSLRAEDMAVYYCARDYYGAGSFYDGLYGMDVWGQGTTVTVSSASTKGPSVFPLAPSSKSTSGGTAALGCLVKDYFPEPVTVSWNSGALTSGVHTFPAVLQSSGLYSLSSVVTVPSSSLGTQTYICNVNHKPSNTKVDKRVEPKSCDKTHTCPPCPAPELLGGPSVFLFPPKPKDTLMISRTPEVTCVVVDVSHEDPEVKFNWYVDGVEVHNAKTKPREEQYNSTYRVVSVLTVLHQDWLNGKEYKCKVSNKALPAPISKTISKAKGQPREPQVYTLPPSREEMTKNQVSLTCLVKGFYPSDIAVEWESNGQPENNYKTTPPVLDSDGSFFLYSKLTVDKSRWQQGNVFSCSVMHGALHNHYTQKKLSLSPGK
light: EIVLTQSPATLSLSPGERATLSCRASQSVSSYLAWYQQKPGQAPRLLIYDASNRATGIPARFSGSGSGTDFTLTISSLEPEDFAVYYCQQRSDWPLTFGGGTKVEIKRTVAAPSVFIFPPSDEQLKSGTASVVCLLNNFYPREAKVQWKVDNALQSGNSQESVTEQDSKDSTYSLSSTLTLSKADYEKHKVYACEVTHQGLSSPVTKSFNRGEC
notes: also called IgG1-11B8-E333S-E430G-S440K

binding result [12]: binds | binding result [13]: binds | binding result [14]: binds | binding result [6]: binds
B4: IgG1-CAMPATH-1H-E430G-K439E-K322A (antibody)
heavy: QVQLQESGPGLVRPSQTLSLTCTVSGFTFTDFYMNWVRQPPGRGLEWIGFIRDKAKGYTTEYNPSVKGRVTMLVDTSKNQFSLRLSSVTAADTAVYYCAREGHTAAPFDYWGQGSLVTVSSASTKGPSVFPLAPSSKSTSGGTAALGCLVKDYFPEPVTVSWNSGALTSGVHTFPAVLQSSGLYSLSSVVTVPSSSLGTQTYICNVNHKPSNTKVDKRVEPKSCDKTHTCPPCPAPELLGGPSVFLFPPKPKDTLMISRTPEVTCVVVDVSHEDPEVKFNWYVDGVEVHNAKTKPREEQYNSTYRVVSVLTVLHQDWLNGKEYKCAVSNKALPAPIEKTISKAKGQPREPQVYTLPPSREEMTKNQVSLTCLVKGFYPSDIAVEWESNGQPENNYKTTPPVLDSDGSFFLYSKLTVDKSRWQQGNVFSCSVMHGALHNHYTQESLSLSPGK
light: not shown
notes: also called IgG1-CAMPATH-1H-K322A-E430G-K439E

binding result [6]: binds
B5: IgG1-CAMPATH-1H-E430G-K439E-G237R (antibody)
heavy: B4 heavy with G241R, A326K
light: not shown
notes: also called IgG1-CD52-Campath-G237R-E430G-K439E

The next lines start with the binder.

B2: IgG1-11B8-E430G-S440K-K326A (antibody)
heavy: B1 heavy with K334A, S341E
light: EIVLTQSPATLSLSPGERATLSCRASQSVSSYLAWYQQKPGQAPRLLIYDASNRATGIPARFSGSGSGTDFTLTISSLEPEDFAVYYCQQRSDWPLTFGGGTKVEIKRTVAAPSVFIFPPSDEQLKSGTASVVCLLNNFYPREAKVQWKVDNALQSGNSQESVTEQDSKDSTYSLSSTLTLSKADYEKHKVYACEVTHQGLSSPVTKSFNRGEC
notes: also called IgG1-11B8-K326A-E430G-S440K
binding result [1]: binds | binding result [2]: binds | binding result [3]: binds | binding result (C1q): binds

B3: IgG1-CAMPATH-1H-E430G-K439E-G236R (antibody)
heavy: B4 heavy with G240R, A326K
light: not shown
notes: also called IgG1-CAMPATH-1H-G236R-E430G-K439E; IgG1-CAMPATH-E430G-K439E-G236R
binding result [6]: binds | binding result [7]: no binding (tested: 20 µg/mL) | binding result [8]: no binding (tested: 20 µg/mL) | binding result [9]: no binding (tested: 20 µg/mL) | binding result [10]: no binding (tested: 20 µg/mL) | binding result [11]: no binding (tested: 20 µg/mL)

B6: IgG1-CAMPATH-1H-E430G-K439E-G237T (antibody)
heavy: B4 heavy with G241T, A326K
light: not shown
notes: also called IgG1-CD52-Campath-G237T-E430G-K439E
binding result [6]: binds | binding result [7]: no binding (tested: 20 µg/mL) | binding result [8]: no binding (tested: 20 µg/mL) | binding result [9]: no binding (tested: 20 µg/mL) | binding result [10]: no binding (tested: 20 µg/mL) | binding result [11]: no binding (tested: 20 µg/mL)

B7: IgG1-CAMPATH-1H-E430G-K439E-G237Q (antibody)
heavy: B4 heavy with G241Q, A326K
light: not shown
notes: also called IgG1-CD52-Campath-G237Q-E430G-K439E
binding result [6]: binds
